Experimental data reported in patent publication US20140178899.

How the values were obtained:
[1] = biological target: T1, mutant BH3 peptide (aa 108-127) in which Thr119 was substituted to alanine (T119A)
T1 chain: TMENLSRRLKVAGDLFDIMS

[2] = biological target: T2, peptide corresponding to Beclin's BH3 domain (aa 108-127)
T2 chain: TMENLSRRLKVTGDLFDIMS

[3] = biological target: Flag-tagged Beclin-1 (wild type)
[4] = biological target: GST protein (GST alone) [GST: P08515]
[5] = biological target: GST-Beclin-1 fusion protein (wild type, bacterially purified, not phosphorylated)
Chain of GST-Beclin-1 fusion protein (wild type, bacterially purified, not phosphorylated) (chain, as listed by the source): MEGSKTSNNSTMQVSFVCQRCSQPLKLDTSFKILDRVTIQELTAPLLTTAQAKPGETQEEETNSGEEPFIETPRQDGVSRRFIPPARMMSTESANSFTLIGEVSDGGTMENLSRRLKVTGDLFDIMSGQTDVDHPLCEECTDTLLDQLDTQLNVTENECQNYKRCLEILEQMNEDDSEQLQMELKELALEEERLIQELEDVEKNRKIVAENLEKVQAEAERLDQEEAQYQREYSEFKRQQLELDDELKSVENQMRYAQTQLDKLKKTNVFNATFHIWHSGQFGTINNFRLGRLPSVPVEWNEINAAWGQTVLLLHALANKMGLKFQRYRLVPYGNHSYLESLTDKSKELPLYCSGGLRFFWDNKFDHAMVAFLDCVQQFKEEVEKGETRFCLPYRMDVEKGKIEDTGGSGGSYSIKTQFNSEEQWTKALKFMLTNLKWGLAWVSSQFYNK

Chain of Flag-tagged Beclin-1 (wild type) (chain, as listed by the source): as above
Chain of GST protein (GST alone) [GST: P08515] (P08515 whole entry, the tested form may be a part): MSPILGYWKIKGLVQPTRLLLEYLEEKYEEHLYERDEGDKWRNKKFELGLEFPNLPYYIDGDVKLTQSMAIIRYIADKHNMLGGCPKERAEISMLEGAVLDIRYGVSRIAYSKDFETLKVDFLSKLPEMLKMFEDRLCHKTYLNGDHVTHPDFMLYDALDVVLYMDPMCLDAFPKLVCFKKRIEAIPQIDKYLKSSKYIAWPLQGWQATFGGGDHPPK

B1: DAPk's catalytic domain (DK1), bacterially purified (protein)
chain: MTVFRQENVDDYYDTGEELGSGQFAVVKKCREKSTGLQYAAKFIKKRRTKSSRRGVSREDIEREVSILKEIQHPNVITLHEVYENKTDVILILELVAGGELFDFLAEKESLTEEEATEFLKQILNGVYYLHSLQIAHFDLKPENIMLLDRNVPKPRIKIIDFGLAHKIDFGNEFKNIFGTPEFVAPEIVNYEPLGLEADMWSIGVITYILLSGASPFLGDTKQETLANVSAVNYEFEDEYFSNTSALAKDFIRRLLVKDPKKRMTIQDSLQHPWIKPKDTQQALS
[1]
  peptide phosphorylation, filter assay counts: Changing Thr119 to alanine strongly inhibited the extent of peptide phosphorylation
[2]
  peptide phosphorylation, filter assay counts against substrate concentration: DAPk phosphorylates Beclin's BH3 peptide in a dose-dependent manner

B2: Flag-tagged DAPk (full length) (protein)
chain: MTVFRQENVDDYYDTGEELGSGQFAVVKKCREKSTGLQYAAKFIKKRRTKSSRRGVSREDIEREVSILKEIQHPNVITLHEVYENKTDVILILELVAGGELFDFLAEKESLTEEEATEFLKQILNGVYYLHSLQIAHFDLKPENIMLLDRNVPKPRIKIIDFGLAHKIDFGNEFKNIFGTPEFVAPEIVNYEPLGLEADMWSIGVITYILLSGASPFLGDTKQETLANVSAVNYEFEDEYFSNTSALAKDFIRRLLVKDPKKRMTIQDSLQHPWIKPKDTQQALSRKASAVNMEKFKKFAARKKWKQSVRLISLCQRLSRSFLSRSNMSVARSDDTLDEEDSFVMKAIIHAINDDNVPGLQHLLGSLSNYDVNQPNKHGTPPLLIAAGCGNIQILQLLIKRGSRIDVQDKGGSNAVYWAARHGHVDTLKFLSENKCPLDVKDKSGEMALHVAARYGHADVAQLLCSFGSNPNIQDKEEETPLHCAAWHGYYSVAKALCEAGCNVNIKNREGETPLLTASARGYHDIVECLAEHGADLNACDKDGHIALHLAVRRCQMEVIKTLLSQGCFVDYQDRHGNTPLHVACKDGNMPIVVALCEANCNLDISNKYGRTPLHLAANNGILDVVRYLCLMGASVEALTTDGKTAEDLARSEQHEHVAGLLARLRKDTHRGLFIQQLRPTQNLQPRIKLKLFGHSGSGKTTLVESLKCGLLRSFFRRRRPRLSSTNSSRFPPSPLASKPTVSVSINNLYPGCENVSVRSRSMMFEPGLTKGMLEVFVAPTHHPHCSADDQSTKAIDIQNAYLNGVGDFSVWEFSGNPVYFCCYDYFAANDPTSIHVVVFSLEEPYEIQLNQVIFWLSFLKSLVPVEEPIAFGGKLKNPLQVVLVATHADIMNVPRPAGGEFGYDKDTSLLKEIRNRFGNDLHISNKLFVLDAGASGSKDMKVLRNHLQEIRSQIVSVCPPMTHLCEKIISTLPSWRKLNGPNQLMSLQQFVYDVQDQLNPLASEEDLRRIAQQLHSTGEINIMQSETVQDVLLLDPRWLCTNVLGKLLSVETPRALHHYRGRYTVEDIQRLVPDSDVEELLQILDAMDICARDLSSGTMVDVPALIKTDNLHRSWADEEDEVMVYGGVRIVPVEHLTPFPCGIFHKVQVNLCRWIHQQSTEGDADIRLWVNGCKLANRGAELLVLLVNHGQGIEVQVRGLETEKIKCCLLLDSVCSTIENVMATTLPGLLTVKHYLSPQQLREHHEPVMIYQPRDFFRAQTLKETSLTNTMGGYKESFSSIMCFGCHDVYSQASLGMDIHASDLNLLTRRKLSRLLDPPDPLGKDWCLLAMNLGLPDLVAKYNTSNGAPKDFLPSPLHALLREWTTYPESTVGTLMSKLRELGRRDAADFLLKASSVFKINLDGNGQEAYASSCNSGTSYNSISSVVSR
[3]
  in vitro kinase assay, 33P incorporation (X-ray film): The phosphorylation by Flag-tagged (60 ng) DAPk was also observed when Flag-tagged Beclin-1 (250 ng), immunoprecipitated from HEK293T cells, was used as a substrate
[4]
  in vitro kinase assay, 33P incorporation (X-ray film): GST-Beclin-1, but not GST alone, was phosphorylated by DAPk
[5]
  in vitro kinase assay, 33P incorporation (X-ray film): GST-Beclin-1, but not GST alone, was phosphorylated by DAPk
  phosphorylation site mapping by mass spectrometry: two phosphorylation sites were identified with good accuracy ... a phosphorylation on S104 or T108, and the second was identified as Thr119
